# Data as given in patent US20160009772A1 (Hoffmann-La Roche, published 2016).
# Where two headings read alike, the source gives them in different places.
# Experiments:
# [1] = molecular target: T1, N-terminal His (six histadine)-tagged IRF5 (222-425) SEQ ID NO 22 (human, UniProt Q13568 222-425); test: direct binding TR-FRET, FITC peptide and Tb anti-His antibody (FIG. 2)
# T1 construct: also called His tag IRF5(222-425); his-tagged IRF5 (222-425, lacking helix 5 and unable to homodimerize)
# Procedure: Aliquots (1.6 μl per well) of 4 μM FITC peptide solution in DMSO were added into 96-well polypropylene plates (Corning). […] The samples were incubated at room temperature for 30 min. […] Samples were incubated at 4° C. for overnight and 18 μl per well were transferred to small volume 384-well polystyrene plates (Corning) in duplicates.
# [2] = molecular target: T2, IRF5(222-467, S430D), S430D phosphomimetic construct of IRF5 (222-467) (human, UniProt Q13568-4 222-467); test: TR-FRET IRF5 dimerization inhibition, S430D (222-467), peptide titrated
# T2 construct: range 222-467; Used in the dimer assay in two tagged forms at once (biotin tag and His tag); S and R stand 10 residues further (S440, R363), so the construct is probably numbered on an isoform 10 residues shorter; also called mutant S430D (222-467); biotin tag IRF5(222-467, S430D)
# Procedure: (§1) The samples were incubated at room temperature for 20 min. Seventeen microliters per well of detection solution containing 10 nM europium (Eu) conjugated streptavidin and 80 nM allophycocyanin (APC) conjugated anti-His antibody (Columbia Biosciences) in Assay Buffer (without DTT) were added. The samples were incubated at room temperature for 60 min followed by overnight incubation at 40 C and 30 ul per well were transferred to 384-well polystyrene plates (Matrix, Thermal Scientific) in duplicates. […] The data were processed in Excel XLfit and the IC50 values were calculated using a nonlinear curve-fitting algorithm (four parameter equation). The data represent an average of 3 independent experiments (each run in triplicates) and the reported errors represent standard deviation (s.d.).
# [3] = molecular target: T2, IRF5(222-467, S430D), S430D …; test: as above; remark: listed apart in the source
# Procedure: as §1
# T2 sequence (Q13568 232-477 S440D limits assumed): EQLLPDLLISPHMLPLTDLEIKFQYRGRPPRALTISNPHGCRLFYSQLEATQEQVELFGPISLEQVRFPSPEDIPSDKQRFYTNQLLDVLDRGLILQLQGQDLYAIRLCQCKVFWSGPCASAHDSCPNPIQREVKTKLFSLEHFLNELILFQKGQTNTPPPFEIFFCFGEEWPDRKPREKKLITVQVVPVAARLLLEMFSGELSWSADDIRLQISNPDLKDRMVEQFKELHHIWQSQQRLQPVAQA
# T1 sequence (Q13568 other isoform, or with tags, fused parts or gaps limits assumed): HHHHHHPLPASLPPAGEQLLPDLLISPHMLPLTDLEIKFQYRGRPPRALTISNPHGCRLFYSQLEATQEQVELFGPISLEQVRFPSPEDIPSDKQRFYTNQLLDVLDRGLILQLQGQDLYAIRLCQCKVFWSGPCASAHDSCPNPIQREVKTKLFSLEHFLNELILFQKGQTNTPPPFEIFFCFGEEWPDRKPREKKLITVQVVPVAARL
Binder,IC50 [2] [nM],other results
"Ac-YLKFIPLKRAIWLIK-NH2 (also: FITC label, position and linker not given here, Kept apart from m13) [control FITC labeled CPP designed not to bind IRF5 (SEQ ID NO: 23)]",,binding result [1]: no binding (tested: 0-10.5 uM His tag IRF5(222-425))
Ac-IRLQISNPDLKDLMVQWFKDGGPSSGAPPPS-NH2 [Ac-IRLQISNPDLKDLMVQWFKDGGPSSGAPPPS-NH2 (SEQ ID NO: 9)],2420,
Ac-PFPPLPIGEEAPKDDMVRFFKDLHQYLNVV-NH2 [Ac-PFPPLPIGEEAPKDDMVRFFKDLHQYLNVV-NH2 (SEQ ID NO: 10)],1670,
"Ac-YLKFIPLKRAIWLIK-NH2 [Ac-YLKFIPLKRAIWLIK-NH2 (SEQ ID NO: 23), control CPP designed not to bind IRF5]",,IC50 [3]: > 75000 nM
